Source: the supplement of paper PMC5998384

Experiments:
[1] = tested on: HeLa Kyoto; experiment: melting temperature (median over replicates), in situ; higher = more thermally stable
[2] = tested on: HeLa Kyoto; experiment: solubility in G1/S (NP-40 vs SDS abundance) (log2 ratio); higher = more soluble; settings: cell cycle stage: G1/S
[3] = tested on: HeLa Kyoto; experiment: thermal stability score vs G1/S (z-score of summed log2 fold changes over temperatures); higher = more thermally stable than in G1/S
[4] = tested on: HeLa Kyoto; experiment: solubility change mitosis vs G1/S (difference of NP-40 vs SDS log2 ratios) (log2 ratio difference); higher = more soluble in mitosis
[5] = cell cycle stage: early G1 (4.5 h after nocodazole release)
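Wherever melting temperature (median over replicates), in situ is given: HeLa Kyoto cells synchronized by double thymidine or nocodazole block, proteins quantified by TMT10plex mass spectrometry, three independent biological replicates.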
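Wherever solubility change mitosis vs G1/S (difference of NP-40 vs SDS log2 ratios) is given: synchronized HeLa Kyoto cells (double thymidine block for G1/S, nocodazole release for mitosis), protein amounts in NP-40 versus SDS lysates quantified by mass spectrometry, three biological replicates.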
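Wherever solubility in G1/S (NP-40 vs SDS abundance) is given: HeLa Kyoto cells arrested at G1/S by double thymidine block, proteins quantified by TMT10plex mass spectrometry in mild NP-40 versus SDS extracts, three biological replicates.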
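Wherever thermal stability score vs G1/S (z-score of summed log2 fold changes over temperatures) is given: synchronized HeLa Kyoto cells, proteins quantified by TMT10plex mass spectrometry, three biological replicates, mitosis taken 0.5 h after nocodazole release, G1/S directly after double thymidine block.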

Question: “MAMGDDKSFDDEESVDGNRPSSAASAFKVPAPKTSGNPANSARKPGSAGGPKVGGASKEGGAGAVDEDDFIKAFTDVPSIQIYSSRELEETLNKIREILSDDKHDWDQRANALKKIRSLLVAGAAQYDCFFQHLRLLDGALKLSAKDLRSQVVREACITVAHLSTVLGNKFDHGAEAIVPTLFNLVPNSAKVMATSGCAAIRFIIRHTHVPRLIPLITSNCTSKSVPVRRRSFEFLDLLLQEWQTHSLERHAAVLVETIKKGIHDADAEARVEARKTYMGLRNHFPGEAETLYNSLEPSYQKSLQTYLKSSGSVASLPQSDRSSSSSQESLNRPFSSKWSTANPSTVAGRVSAGSSKASSLPGSLQRSRSDIDVNAAAGAKAHHAAGQSVRSGRLGAGALNAGSYASLEDTSDKLDGTASEDGRVRAKLSAPLAGMGNAKADSRGRSRTKMVSQSQPGSRSGSPGRVLTTTALSTVSSGVQRVLVNSASAQKRSKIPRSQGCSREASPSRLSVARSSRIPRPSVSQGCSREASRESSRDTSPVRSFQPLASRHHSRSTGALYAPEVYGASGPGYGISQSSRLSSSVSAMRVLNTGSDVEEAVADALKKPARRRYESYGMHSDDDANSDASSACSERSYSSRNGSIPTYMRQTEDVAEVLNRCASSNWSERKEGLLGLQNLLKNQRTLSRVELKRLCEIFTRMFADPHGKRVFSMFLETLVDFIQVHKDDLQDWLFVLLTQLLKKMGADLLGSVQAKVQKALDVTRESFPNDLQFNILMRFTVDQTQTPSLKVKVAILKYIETLAKQMDPGDFINSSETRLAVSRVITWTTEPKSSDVRKAAQSVLISLFELNTPEFTMLLGALPKTFQDGATKLLHNHLRNTGNGTQSSMGSPLTRPTPRSPANWSSPLTSPTNTSQNTLSPSAFDYDTENMNSEDIYSSLRGVTEAIQNFSFRSQEDMNEPLKRDSKKDDGDSMCGGPGMSDPRAGGDATDSSQTALDNKASLLHSMPTHSSPRSRDYNPYNYSDSISPFNKSALKEAMFDDDADQFPDDLSLDHSDLVAELLKELSNHNERVEERKIALYELMKLTQEESFSVWDEHFKTILLLLLETLGDKEPTIRALALKVLREILRHQPARFKNYAELTVMKTLEAHKDPHKEVVRSAEEAASVLATSISPEQCIKVLCPIIQTADYPINLAAIKMQTKVIERVSKETLNLLLPEIMPGLIQGYDNSESSVRKACVFCLVAVHAVIGDELKPHLSQLTGSKMKLLNLYIKRAQTGSGGADPTTDVSGQS [CLASP2]” was tested. Which melting temperature ([1]; cell cycle stage: G1/S) did it give?
Answer: 49.7 °C

Question: What about the melting temperature ([1]; cell cycle stage: mitosis) of the same sequence?
Answer: 49.7 °C

Question: What about the “solubility in G1/S (log2)” value [2] of the same sequence?
Answer: -0.0972

Question: What about the thermal stability score [3, 5] of the same sequence?
Answer: 0.157

Question: What about the thermal stability score ([3]; cell cycle stage: mitosis) of the same sequence?
Answer: 0.371

Question: What about the “solubility change mitosis (log2)” value [4] of the same sequence?
Answer: -0.0766

Question: What does the source list for “MAMLVLVPGRVMRPLGGQLWRFLPRGLEFWGPAEGTARVLLRQFCARQAEAWRASGRPGYCLGTRPLSTARPPPPWSQKGPGDSTRPSKPGPVSWKSLAITFAIGGALLAGMKHVKKEKAEKLEKERQRHIGKPLLGGPFSLTTHTGERKTDKDYLGQWLLIYFGFTHCPDVCPEELEKMIQVVDEIDSITTLPDLTPLFISIDPERDTKEAIANYVKEFSPKLVGLTGTREEVDQVARAYRVYYSPGPKDEDEDYIVDHTIIMYLIGPDGEFLDYFGQNKRKGEIAASIATHMRPYRKKS [SCO1]”?
Answer: melting temperature ([1]; cell cycle stage: G1/S): 49.8 °C; melting temperature ([1]; cell cycle stage: mitosis): 51.2 °C; solubility in G1/S (log2) [2]: 0.47; thermal stability score [3, 5]: 2.42; thermal stability score ([3]; cell cycle stage: mitosis): 1.59; solubility change mitosis (log2) [4]: -0.107

Question: For “MANDSGGPGGPSPSERDRQYCELCGKMENLLRCSRCRSSFYCCKEHQRQDWKKHKLVCQGSEGALGHGVGPHQHSGPAPPAAVPPPRAGAREPRKAAARRDNASGDAAKGKVKAKPPADPAAAASPCRAAAGGQGSAVAAEAEPGKEEPPARSSLFQEKANLYPPSNTPGDALSPGGGLRPNGQTKPLPALKLALEYIVPCMNKHGICVVDDFLGKETGQQIGDEVRALHDTGKFTDGQLVSQKSDSSKDIRGDKITWIEGKEPGCETIGLLMSSMDDLIRHCNGKLGSYKINGRTKAMVACYPGNGTGYVRHVDNPNGDGRCVTCIYYLNKDWDAKVSGGILRIFPEGKAQFADIEPKFDRLLFFWSDRRNPHEVQPAYATRYAITVWYFDADERARAKVKYLTGEKGVRVELNKPSDSVGKDVF [EGLN1]”, which melting temperature ([1]; cell cycle stage: G1/S) is on record?
Answer: 49.3 °C

Question: And the melting temperature ([1]; cell cycle stage: mitosis)?
Answer: 50.2 °C

Question: What about the “solubility in G1/S (log2)” value [2] of the same sequence?
Answer: 0.331

Question: What about the thermal stability score [3, 5] of the same sequence?
Answer: 2.53

Question: And the thermal stability score ([3]; cell cycle stage: mitosis)?
Answer: 0.714

Question: And the “solubility change mitosis (log2)” value [4]?
Answer: 0.0496

Question: With “MANDSPAKSLVDIDLSSLRDPAGIFELVEVVGNGTYGQVYKGRHVKTGQLAAIKVMDVTEDEEEEIKLEINMLKKYSHHRNIATYYGAFIKKSPPGHDDQLWLVMEFCGAGSITDLVKNTKGNTLKEDWIAYISREILRGLAHLHIHHVIHRDIKGQNVLLTENAEVKLVDFGVSAQLDRTVGRRNTFIGTPYWMAPEVIACDENPDATYDYRSDLWSCGITAIEMAEGAPPLCDMHPMRALFLIPRNPPPRLKSKKWSKKFFSFIEGCLVKNYMQRPSTEQLLKHPFIRDQPNERQVRIQLKDHIDRTRKKRGEKDETEYEYSGSEEEEEEVPEQEGEPSSIVNVPGESTLRRDFLRLQQENKERSEALRRQQLLQEQQLREQEEYKRQLLAERQKRIEQQKEQRRRLEEQQRREREARRQQEREQRRREQEEKRRLEELERRRKEEEERRRAEEEKRRVEREQEYIRRQLEEEQRHLEVLQQQLLQEQAMLLECRWREMEEHRQAERLQRQLQQEQAYLLSLQHDHRRPHPQHSQQPPPPQQERSKPSFHAPEPKAHYEPADRAREVEDRFRKTNHSSPEAQSKQTGRVLEPPVPSRSESFSNGNSESVHPALQRPAEPQVPVRTTSRSPVLSRRDSPLQGSGQQNSQAGQRNSTSIEPRLLWERVEKLVPRPGSGSSSGSSNSGSQPGSHPGSQSGSGERFRVRSSSKSEGSPSQRLENAVKKPEDKKEVFRPLKPADLTALAKELRAVEDVRPPHKVTDYSSSSEESGTTDEEDDDVEQEGADESTSGPEDTRAASSLNLSNGETESVKTMIVHDDVESEPAMTPSKEGTLIVRQTQSASSTLQKHKSSSSFTPFIDPRLLQISPSSGTTVTSVVGFSCDGMRPEAIRQDPTRKGSVVNVNPTNTRPQSDTPEIRKYKKRFNSEILCAALWGVNLLVGTESGLMLLDRSGQGKVYPLINRRRFQQMDVLEGLNVLVTISGKKDKLRVYYLSWLRNKILHNDPEVEKKQGWTTVGDLEGCVHYKVVKYERIKFLVIALKSSVEVYAWAPKPYHKFMAFKSFGELVHKPLLVDLTVEEGQRLKVIYGSCAGFHAVDVDSGSVYDIYLPTHIQCSIKPHAIIILPNTDGMELLVCYEDEGVYVNTYGRITKDVVLQWGEMPTSVAYIRSNQTMGWGEKAIEIRSVETGHLDGVFMHKRAQRLKFLCERNDKVFFASVRSGGSSQVYFMTLGRTSLLSW [MAP4K4]” as the sequence, how does the melting temperature ([1]; cell cycle stage: G1/S) read?
Answer: 51.7 °C

Question: What about the melting temperature ([1]; cell cycle stage: mitosis) of the same sequence?
Answer: 51.3 °C

Question: What about the “solubility in G1/S (log2)” value [2] of the same sequence?
Answer: -0.155

Question: What about the thermal stability score [3, 5] of the same sequence?
Answer: 0.471

Question: What about the thermal stability score ([3]; cell cycle stage: mitosis) of the same sequence?
Answer: 0.408

Question: What about the “solubility change mitosis (log2)” value [4] of the same sequence?
Answer: -0.0676

Question: Which results are given for “MANEAYPCPCDIGHRLEYGGLGREVQVEHIKAYVTKSPVDAGKAVIVIQDIFGWQLPNTRYIADMISGNGYTTIVPDFFVGQEPWDPSGDWSIFPEWLKTRNAQKIDREISAILKYLKQQCHAQKIGIVGFCWGGTAVHHLMMKYSEFRAGVSVYGIVKDSEDIYNLKNPTLFIFAENDVVIPLKDVSLLTQKLKEHCKVEYQIKTFSGQTHGFVHRKREDCSPADKPYIDEARRNLIEWLNKYM [CMBL]”?
Answer: melting temperature ([1]; cell cycle stage: G1/S): 53.5 °C; melting temperature ([1]; cell cycle stage: mitosis): 52.8 °C; solubility in G1/S (log2) [2]: 0.267; thermal stability score [3, 5]: -0.107; thermal stability score ([3]; cell cycle stage: mitosis): -0.238; solubility change mitosis (log2) [4]: -0.08
